The labels stand for the following.
B2: mouse Fz8-CRD (residues 32-151), biotinylated (domain or fragment, UniProt Q61091 32-151, looked up)
chain: ELACQEITVPLCKGIGYNYTYMPNQFNHDTQDEAGLEVHQFWPLVEIQCSPDLKFFLCSMYTPICLEDYKKPLPPCRSVCERAKAGCAPLMRQYGFAWPDRMRCDRLPEQGNPDTLCMDY
modifications: biotin on the BAP-tag (enzymatic, GST-BirA ligase)
B3: human Fz5-CRD (residues 30-150), biotinylated (domain or fragment, UniProt Q13467 30-150, looked up)
chain: APVCQEITVPMCRGIGYNLTHMPNQFNHDTQDEAGLEVHQFWPLVEIQCSPDLRFFLCSMYTPICLPDYHKPLPPCRSVCERAKAGCSPLMRQYGFAWPERMSCDRLPVLGRDAEVLCMDY
modifications: biotin on the BAP-tag (enzymatic, GST-BirA ligase)

The target in experiment [1] is B2. Description: SPR. A general note: In SPR one partner is held on a chip, and binding of the other changes the refractive index at the surface.
Experiment [2] has as its target B3. Description: SPR.
Experiment [3] has as its target T1, mini-XWnt8 (C-terminal fragment of XWnt8, residues 248-338) displayed on yeast (Xenopus, UniProt P28026 248-338).
T1 sequence (looked up): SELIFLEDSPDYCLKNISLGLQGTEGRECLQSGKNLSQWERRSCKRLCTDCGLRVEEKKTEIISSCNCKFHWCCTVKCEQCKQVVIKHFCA
Description: flow cytometry on cells. On the technique in general: Flow cytometry measures light scatter and fluorescence of single cells or particles in a stream.

B1: soluble mini-XWnt8 (residues 248-338) with C-terminal six-histidine tag (domain or fragment, Xenopus, UniProt P28026 248-338, looked up)
chain: SELIFLEDSPDYCLKNISLGLQGTEGRECLQSGKNLSQWERRSCKRLCTDCGLRVEEKKTEIISSCNCKFHWCCTVKCEQCKQVVIKHFCA
With B1, the results for the equilibrium dissociation constant (Kd) in experiment [1] and in experiment [2] were around 2400 nM and around 3500 nM, respectively.
Regarding B2, the “percent of yeast stained” value in experiment [3] was around 50%.
For the molecule B3, in experiment [3], the “percent of yeast stained” value was around 30%.

As usually defined, the Kd is the free concentration of one partner at which half of the binding sites on the other are occupied at equilibrium, for simple one-to-one binding. The low end stands for a tighter complex, the high end for a looser complex.

The values are drawn from PMC3577348 (Science (New York, N.Y.), 2012).
